Data reported in patent US20200087394A1.

Target: CD16 receptor on Jurkat-hCD16aF cells (human) (UniProt P08637)
Experiment: cell-based or functional assay

Sequence of CD16 receptor on Jurkat-hCD16aF cells (human) (P08637 17-254): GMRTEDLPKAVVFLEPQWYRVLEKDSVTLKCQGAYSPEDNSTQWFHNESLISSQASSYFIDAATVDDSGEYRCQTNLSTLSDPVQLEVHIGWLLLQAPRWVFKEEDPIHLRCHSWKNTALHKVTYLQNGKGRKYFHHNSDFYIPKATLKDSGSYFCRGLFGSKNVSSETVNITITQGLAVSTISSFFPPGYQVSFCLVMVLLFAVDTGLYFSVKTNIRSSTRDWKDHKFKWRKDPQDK

quantity of antibody required to induce 1000 pg of IL-2 from Jurkat-hCD16aF cells with PD-L1 aAPC/CHO-K1 target cells (ng per 1000 pg of IL-2)	Substance
> 1250	Anti-PDL1|atezolizumab|Fc-WT (CHOs) (from UniProt P01857 1-330) (antibody)
> 1250	Anti-PDL1|durvalumab|Fc-WT (CHOs) (from UniProt P01857 1-330) (antibody)
